Experimental data: US20070185028A1, “Compositions and methods for treatment of protein misfolding and protein aggregation diseases” (priority 2004, published 2007)

Tests used:
[1] = target: T1, porcine citrate synthase (CS) (Sus scrofa, UniProt P00889); experiment: αB crystallin protein pin array with citrate synthase; assay type: binding; conditions: CS as target protein in the pin array
T1 construct: purchased Roche Diagnostics, IN 103 381
T1 sequence (P00889 28-464): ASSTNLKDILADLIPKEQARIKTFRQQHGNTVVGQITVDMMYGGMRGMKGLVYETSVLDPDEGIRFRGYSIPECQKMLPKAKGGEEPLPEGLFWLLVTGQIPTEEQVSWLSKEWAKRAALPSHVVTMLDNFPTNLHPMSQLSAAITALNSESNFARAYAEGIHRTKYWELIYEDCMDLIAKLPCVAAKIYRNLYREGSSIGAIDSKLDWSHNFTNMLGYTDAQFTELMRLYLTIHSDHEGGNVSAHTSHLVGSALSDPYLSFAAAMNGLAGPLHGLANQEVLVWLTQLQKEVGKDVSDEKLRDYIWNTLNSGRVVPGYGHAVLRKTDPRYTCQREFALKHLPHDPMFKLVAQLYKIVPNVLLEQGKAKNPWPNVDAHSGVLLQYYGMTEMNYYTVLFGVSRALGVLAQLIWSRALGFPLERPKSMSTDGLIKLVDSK
Excerpt: (§1) Synthesis of Pins, binding and detection of peptides binding to ligand proteins. The αB crystallin protein pin array was used to measure the interaction between peptides and chaperone target proteins including bovine βH crystallin, human γD crystallin, equine alcohol dehydrogenase (ADH) and porcine citrate synthase (CS) as described (FIG. 12). Ghosh and Clark, Protein Sci 14: 684-95, 2005.
(§2) Refer to the methods section for detailed protocols. The absorbance corresponding to the blue coloration in each well was measured at λ=450 nm and plotted against the amino acid sequence of the corresponding peptide in that well (FIGS. 13 and 14). Wells containing peptides that have strong interactions with target proteins are dark blue and wells containing peptides that have weak or no interaction with target proteins are light blue or clear.
(§3) The purity of the target proteins used in the pin array assays, bovine βH crystallin, human γD crystallin, equine alcohol dehydrogenase (ADH) and porcine citrate synthase (CS) were determined to be >90% by SDS-PAGE. In addition, primary antibodies for each target protein were specific to that target protein and consequently contaminating proteins that may bind to the peptides will not be detected. Eighty-four sequential and overlapping peptide fragments corresponding to residues 1-175 of human αB crystallin were synthesized employing a simultaneous peptide synthesis strategy developed by Geysen, called Multipin Peptide Synthesis (Mimotopes, San Diego, Calif.). Geysen, Southeast Asian J Trop Med Public Health 21: 523-33, 1990; Chin et al., J Org Chem 62: 538-539, 1997. Peptides were immobilized on derivatized polyethylene pins arranged in a microtiter ELISA plate format. Each peptide was eight amino acids in length and consecutive peptides were offset by two amino acids. All peptides were bound covalently to the surface of the plastic pins. The first peptide was 1MDIAIHHP8 and the last peptide was 168PAVTAAPK175 for human αB crystallin.
(§4) Ghosh and Clark, Protein Sci 14: 684-95, 2005. […] The intensity of the blue color in the wells was measured at 450 nm using an ELISA plate-reader (BioTek, Winooski, Vt.). The intensity of the blue color (plotted on the X-axis) was a measure of the interaction between αB crystallin peptides (plotted on the Y-axis) and target proteins. To measure the effect of temperature on the interactions between interactive peptides and the target proteins, the target proteins were heated in a water-bath at 45° C. for fifteen minutes prior to use. Pin arrays are unable to differentiate between monomers, dimers or oligomers of target proteins that exist in solution. Instead, pin arrays are very sensitive detectors of interactions between individual peptides and the entire population (monomers, dimers or oligomers) of specific target proteins that may exist in solution under specific conditions. Each target protein was assayed two to five times. A single pin array was used for all experiments and no change in interactions was observed after more than thirty repetitions. The last three peptides of the protein pin array, 163REEKPAVT170, 165EKPAVTAA172, 167PAVTAAPK174, correspond to the epitope (163REEKPAVTAAPKK175) recognized by the primary antibody for human αB crystallin. A positive reaction is observed for these three peptides in the absence of human αB crystallin as the ligand due to direct binding of the anti-human αB crystallin antibody to these three peptides. The loss of efficiency for the pin array was measured using this assay. The loss of efficiency for the pin array was determined to be <5% by after more than 30 assays.
The pattern of absorbance at λ=450 nm when αB crystallin peptides were assayed with unheated and pre-heated CS was similar to the absorbance pattern obtained with unheated and pre-heated βH/γD crystallin and ADH (FIG. 18). […]

human γD crystallin = target: T2, human γD crystallin (Homo sapiens, UniProt P07320); experiment: αB crystallin protein pin array with γD crystallin; assay type: binding; conditions: unheated γD crystallin; similar maxima pre-heated 45° C.
T2 construct: made in house
T2 sequence (P07320 1-174): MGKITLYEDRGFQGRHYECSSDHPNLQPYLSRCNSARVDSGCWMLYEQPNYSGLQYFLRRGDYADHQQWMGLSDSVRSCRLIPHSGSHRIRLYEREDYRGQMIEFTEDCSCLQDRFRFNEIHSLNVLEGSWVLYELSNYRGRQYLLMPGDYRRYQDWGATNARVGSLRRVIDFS
Excerpt: as §1, §2, §3, §4
When βH crystallin was replaced with γD crystallin, a native protein constituent of lens cytoplasm from the same gene family as the β crystallins, as the ligand in the pin array, twelve interactive sequences were identified (FIG. 14: striped bars). […]

Row | Sequence | absorbance at 450 nm, interaction with CS [1] | absorbance at 450 nm, interaction with γD crystallin (human γD crystallin)
1 | FSVNLDVK [Peptide 38] | absorbance maxima | maximum absorbances
2 | LTITSSLS [Peptide 66] | absorbance maxima | maximum absorbances
3 | WIRRPFFP [Peptide 5] | absorbance maxima | maximum absorbances
